From the supplement of paper PMC10567573

B1: WDFY1 (parent)
chain: LLIPKEDGVITASEDRTIRVWLKR

Variants of: B1
Experiment: protein stability index of a GFP-peptide fusion (GPS, HEK-293T) (PSI 1-6); higher = more stable
Settings: c terminus: a fixed tail appended
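Also: lentivirally expressed fusions sorted by FACS into six bins by GFP to DsRed ratio, PSI derived from sequencing read proportions per bin multiplied by bin number.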

Variant | protein stability index
LLIPKIDGVITASEDRTIRVWLKR | 1.98
LLIPKFDGVITASEDRTIRVWLKR | 2.25
LLIPKSDGVITASEDRTIRVWLKR | 2.06
LLIPKHDGVITASEDRTIRVWLKR | 2.67
LLIPKVDGVITASEDRTIRVWLKR | 1.42
LLIPKYDGVITASEDRTIRVWLKR | 2.4
LLIPKGDGVITASEDRTIRVWLKR | 2.56
LLIPKPDGVITASEDRTIRVWLKR | 2.43
LLIPKTDGVITASEDRTIRVWLKR | 1.77
LLIPKDDGVITASEDRTIRVWLKR | 2.82
LLIPKQDGVITASEDRTIRVWLKR | 3.73
LLIPKLDGVITASEDRTIRVWLKR | 3.18
LLIPKRDGVITASEDRTIRVWLKR | 1.63
LLIPKADGVITASEDRTIRVWLKR | 2.59
LLIPKCDGVITASEDRTIRVWLKR | 2.67
LLIPKNDGVITASEDRTIRVWLKR | 2.58
LLIPKWDGVITASEDRTIRVWLKR | 1.66
LLIPKKDGVITASEDRTIRVWLKR | 2.18
LLIPKMDGVITASEDRTIRVWLKR | 2.65
LLQPKEDGVITASEDRTIRVWLKR | 2.66
LLCPKEDGVITASEDRTIRVWLKR | 2.24
LLMPKEDGVITASEDRTIRVWLKR | 1.95
LLWPKEDGVITASEDRTIRVWLKR | 1.87
LLAPKEDGVITASEDRTIRVWLKR | 3.62

Variant | protein stability index
LLNPKEDGVITASEDRTIRVWLKR | 3.77
LLYPKEDGVITASEDRTIRVWLKR | 1.89
LLHPKEDGVITASEDRTIRVWLKR | 2.45
LLKPKEDGVITASEDRTIRVWLKR | 3.17
LLLPKEDGVITASEDRTIRVWLKR | 2.76
LLFPKEDGVITASEDRTIRVWLKR | 2.04
LLRPKEDGVITASEDRTIRVWLKR | 2.71
LLGPKEDGVITASEDRTIRVWLKR | 2.97
LLEPKEDGVITASEDRTIRVWLKR | 3.36
LLTPKEDGVITASEDRTIRVWLKR | 2.91
LLDPKEDGVITASEDRTIRVWLKR | 3.09
LLIPKEDGVITGSEDRTIRVWLKR | 1.93
LLIPKEDGVITCSEDRTIRVWLKR | 1.77
LLIPKEDGVITISEDRTIRVWLKR | 1.92
LLIPKEDGVITLSEDRTIRVWLKR | 2.1
LLIPKEDGVITKSEDRTIRVWLKR | 2.19
LLIPKEDGVITNSEDRTIRVWLKR | 2.56
LLIPKEDGVITPSEDRTIRVWLKR | 2.76
LLIPKEDGVITQSEDRTIRVWLKR | 2.18
LLIPKEDGVITHSEDRTIRVWLKR | 2.08
LLIPKEDGVITYSEDRTIRVWLKR | 2.66
LLIPKEDGVITFSEDRTIRVWLKR | 1.91
LLIPKEDGVITSSEDRTIRVWLKR | 1.71
LLIPKEDGVITDSEDRTIRVWLKR | 2.39

Variant | protein stability index
LLIPKEDGVIEASEDRTIRVWLKR | 2.26
LLIPKEDGVINASEDRTIRVWLKR | 1.82
LLIPKEDGVIRASEDRTIRVWLKR | 3.1
LLIPKEDGVISASEDRTIRVWLKR | 2.42
LLIPKEDGVIIASEDRTIRVWLKR | 2.15
LLIPKEDGVIFASEDRTIRVWLKR | 2.4
LLIPKEDGVIQASEDRTIRVWLKR | 1.72
LLIPKEDGVIVASEDRTIRVWLKR | 2.19
LLIPKEDGVIHASEDRTIRVWLKR | 2.56
LLIPKEDGVIGASEDRTIRVWLKR | 1.98
LLIPKEDGVIPASEDRTIRVWLKR | 2.65
LLIPKEDGVIMASEDRTIRVWLKR | 1.5
LLIPKEDGVIAASEDRTIRVWLKR | 2.43
LLIPKEDGVIWASEDRTIRVWLKR | 1.72
LLIPKEDGVIKASEDRTIRVWLKR | 2.03
LLIPKEDGVICASEDRTIRVWLKR | 2.7
LLIPKEDSVITASEDRTIRVWLKR | 1.95
LLIPKEDRVITASEDRTIRVWLKR | 2.3
LLIPKEDTVITASEDRTIRVWLKR | 2.55
LLIPKEDHVITASEDRTIRVWLKR | 1.78
LLIPKEDDVITASEDRTIRVWLKR | 2.27
LLIPKEDQVITASEDRTIRVWLKR | 1.58
LLIPKEDPVITASEDRTIRVWLKR | 2.41
LLIPKEDFVITASEDRTIRVWLKR | 1.48

Variant | protein stability index
LLIPKEDMVITASEDRTIRVWLKR | 1.14
LLIPKEDIVITASEDRTIRVWLKR | 1.41
LLIPKEDLVITASEDRTIRVWLKR | 1.03
LLIPKEDCVITASEDRTIRVWLKR | 2.23
LLIPKEDNVITASEDRTIRVWLKR | 2.07
LLIPKEDYVITASEDRTIRVWLKR | 1.74
LLIPKEDKVITASEDRTIRVWLKR | 1.99
LLIPKEDWVITASEDRTIRVWLKR | 1.94
LLIPKEDVVITASEDRTIRVWLKR | 1.58
LLIPKEDEVITASEDRTIRVWLKR | 1.31
LLIPKEDGVFTASEDRTIRVWLKR | 2.42
LLIPKEDGVSTASEDRTIRVWLKR | 2.07
LLIPKEDGVRTASEDRTIRVWLKR | 2.07
LLIPKEDGVGTASEDRTIRVWLKR | 2.76
LLIPKEDGVNTASEDRTIRVWLKR | 2.54
LLIPKEDGVHTASEDRTIRVWLKR | 1.94
LLIPKEDGVDTASEDRTIRVWLKR | 2.83
LLIPKEDGVATASEDRTIRVWLKR | 2.4
LLIPKEDGVCTASEDRTIRVWLKR | 1.94
LLIPKEDGVMTASEDRTIRVWLKR | 2.14
LLIPKEDGVPTASEDRTIRVWLKR | 4.2
LLIPKEDGVTTASEDRTIRVWLKR | 2.47
LLIPKEDGVLTASEDRTIRVWLKR | 2.21
LLIPKEDGVQTASEDRTIRVWLKR | 2.62

Variant | protein stability index
LLIPKEDGVETASEDRTIRVWLKR | 2.68
LLIPKEDGVKTASEDRTIRVWLKR | 2.17
LLIPKEDGVYTASEDRTIRVWLKR | 1.91
LIIPKEDGVITASEDRTIRVWLKR | 2.22
LTIPKEDGVITASEDRTIRVWLKR | 2.08
LWIPKEDGVITASEDRTIRVWLKR | 1.76
LPIPKEDGVITASEDRTIRVWLKR | 2.66
LKIPKEDGVITASEDRTIRVWLKR | 3.31
LQIPKEDGVITASEDRTIRVWLKR | 3.1
LMIPKEDGVITASEDRTIRVWLKR | 2.27
LVIPKEDGVITASEDRTIRVWLKR | 2.69
LSIPKEDGVITASEDRTIRVWLKR | 2.78
LRIPKEDGVITASEDRTIRVWLKR | 1.93
LNIPKEDGVITASEDRTIRVWLKR | 2.77
LYIPKEDGVITASEDRTIRVWLKR | 1.82
LLIDKEDGVITASEDRTIRVWLKR | 2.82
LLIMKEDGVITASEDRTIRVWLKR | 1.88
LLISKEDGVITASEDRTIRVWLKR | 2.54
LLICKEDGVITASEDRTIRVWLKR | 2.28
LLIIKEDGVITASEDRTIRVWLKR | 1.52
LLIVKEDGVITASEDRTIRVWLKR | 2.67
LLINKEDGVITASEDRTIRVWLKR | 2.19
LLITKEDGVITASEDRTIRVWLKR | 1.89
LLIGKEDGVITASEDRTIRVWLKR | 1.74

Variant | protein stability index
LLIYKEDGVITASEDRTIRVWLKR | 1.51
LLIQKEDGVITASEDRTIRVWLKR | 1.5
LLIHKEDGVITASEDRTIRVWLKR | 1.75
LLIAKEDGVITASEDRTIRVWLKR | 2.13
LLIWKEDGVITASEDRTIRVWLKR | 2.35
LLIRKEDGVITASEDRTIRVWLKR | 2.46
LLIFKEDGVITASEDRTIRVWLKR | 2.78
LLILKEDGVITASEDRTIRVWLKR | 1.79
LLIPKEEGVITASEDRTIRVWLKR | 3.03
LLIPKETGVITASEDRTIRVWLKR | 2.37
LLIPKEGGVITASEDRTIRVWLKR | 1.77
LLIPKEYGVITASEDRTIRVWLKR | 1.3
LLIPKEWGVITASEDRTIRVWLKR | 1.33
LLIPKENGVITASEDRTIRVWLKR | 1.58
LLIPKESGVITASEDRTIRVWLKR | 1.39
LLIPKEPGVITASEDRTIRVWLKR | 1.66
LLIPKEMGVITASEDRTIRVWLKR | 1.44
LLIPKECGVITASEDRTIRVWLKR | 1.75
LLIPKEQGVITASEDRTIRVWLKR | 2.1
LLIPKELGVITASEDRTIRVWLKR | 2.05
LLIPKEIGVITASEDRTIRVWLKR | 1.28
LLIPKEFGVITASEDRTIRVWLKR | 2.7
LLIPKEHGVITASEDRTIRVWLKR | 1.42
LLIPKEKGVITASEDRTIRVWLKR | 1.56

Variant | protein stability index
LLIPKEVGVITASEDRTIRVWLKR | 1.8
LLIPKEAGVITASEDRTIRVWLKR | 2.06
LLIPKEDGVITAAEDRTIRVWLKR | 1.56
LLIPKEDGVITAGEDRTIRVWLKR | 2.42
LLIPKEDGVITACEDRTIRVWLKR | 1.51
LLIPKEDGVITADEDRTIRVWLKR | 2.53
LLIPKEDGVITAIEDRTIRVWLKR | 2.57
LLIPKEDGVITALEDRTIRVWLKR | 2.15
LLIPKEDGVITAHEDRTIRVWLKR | 1.91
LLIPKEDGVITAKEDRTIRVWLKR | 2.06
LLIPKEDGVITAEEDRTIRVWLKR | 1.5
LLIPKEDGQITASEDRTIRVWLKR | 2.56
LLIPKEDGAITASEDRTIRVWLKR | 2.58
LLIPKEDGFITASEDRTIRVWLKR | 1.81
LLIPKEDGNITASEDRTIRVWLKR | 2.44
LLIPKEDGHITASEDRTIRVWLKR | 2.48
LLIPKEDGIITASEDRTIRVWLKR | 2.77
LLIPKEDGSITASEDRTIRVWLKR | 2.74
LLIPKEDGCITASEDRTIRVWLKR | 1.65
LLIPKEDGRITASEDRTIRVWLKR | 2.33
LLIPKEDGWITASEDRTIRVWLKR | 2.22
LLIPKEDGGITASEDRTIRVWLKR | 2.4
LLIPKEDGEITASEDRTIRVWLKR | 2.6
LLIPKEDGKITASEDRTIRVWLKR | 1.69

Variant | protein stability index
LLIPKEDGPITASEDRTIRVWLKR | 3.22
LLIPKEDGYITASEDRTIRVWLKR | 1.02
LLIPKEDGTITASEDRTIRVWLKR | 2.14
LLIPKEDGMITASEDRTIRVWLKR | 2.21
LLIPGEDGVITASEDRTIRVWLKR | 3.24
LLIPCEDGVITASEDRTIRVWLKR | 2.26
LLIPYEDGVITASEDRTIRVWLKR | 2.91
LLIPNEDGVITASEDRTIRVWLKR | 2.15
LLIPDEDGVITASEDRTIRVWLKR | 2.41
LLIPLEDGVITASEDRTIRVWLKR | 1.36
LLIPSEDGVITASEDRTIRVWLKR | 1.2
LLIPHEDGVITASEDRTIRVWLKR | 1.65
LLIPREDGVITASEDRTIRVWLKR | 1.44
LLIPIEDGVITASEDRTIRVWLKR | 2.28
LLIPEEDGVITASEDRTIRVWLKR | 1.58
LLIPFEDGVITASEDRTIRVWLKR | 1.4
LLIPAEDGVITASEDRTIRVWLKR | 2.13
LLIPQEDGVITASEDRTIRVWLKR | 1.57
LLIPTEDGVITASEDRTIRVWLKR | 1.62
LLIPWEDGVITASEDRTIRVWLKR | 1.41
